The target in assay [1] is wild-type vaginolysin (VLY^wt) (Gardnerella vaginalis, UniProt B2YGA4 31-516). The assay can be described thus: MST.
The target in assay [2] is T1, wild-type intermedilysin (ILY^wt) (Streptococcus intermedius, UniProt Q9LCB8 34-532).
T1 sequence: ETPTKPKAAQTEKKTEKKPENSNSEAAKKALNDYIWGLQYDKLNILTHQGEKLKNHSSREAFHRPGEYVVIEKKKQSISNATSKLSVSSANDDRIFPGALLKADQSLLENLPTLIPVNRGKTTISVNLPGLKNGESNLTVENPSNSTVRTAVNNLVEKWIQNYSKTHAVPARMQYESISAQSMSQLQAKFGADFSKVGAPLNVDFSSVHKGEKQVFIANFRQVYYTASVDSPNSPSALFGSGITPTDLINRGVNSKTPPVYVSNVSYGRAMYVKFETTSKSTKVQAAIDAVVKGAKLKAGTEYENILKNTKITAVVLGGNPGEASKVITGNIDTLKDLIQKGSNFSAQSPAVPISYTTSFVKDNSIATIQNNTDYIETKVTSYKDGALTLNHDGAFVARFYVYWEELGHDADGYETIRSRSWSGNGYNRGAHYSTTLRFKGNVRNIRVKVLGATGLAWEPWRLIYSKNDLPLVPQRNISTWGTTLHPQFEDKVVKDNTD
The assay can be described thus: MST.

B1: CD59 mutant D22A (CD59^D22A) (receptor, human)
chain: LQCYNCPNPTADCKTAVNCSSAFDACLITKAGLQVYNKCWKFEHCNFNDVTTRLRENELTYYCCKKDLCNFNEQLEN
modifications: Dylight 650 label (in the microscale thermophoresis only)
As a reminder, the Kd is a measure of binding affinity in units of concentration. On to B1, for which the values for the Kd in assay [1] and in assay [2] were 779 nM and 367 nM, respectively.
